Results: patent publication US20250320305A1

B1: P1AD4470, anti-CD40 control antibody (CD40 IgG1) (antibody, from a related filing, V domains shown)
VH: EVQLVESGGGLVQPGGSLRLSCAASGYSFTGYYIHWVRQAPGKGLEWVARVIPNAGGTSYNQKFKGRFTLSVDNSKNTAYLQMNSLRAEDTAVYYCAREGIYWWGQGTLVTVSS
VL: DIQMTQSPSSLSASVGDRVTITCRSSQSLVHSNGNTFLHWYQQKPGKAPKLLIYTVSNRFSGVPSRFSGSGSGTDFTLTISSLQPEDFATYFCSQTTHVPWTFGQGTKVEIKR
B2: 4B9_Fab (Fab, from a related filing, V domains shown)
VH: EVQLLESGGGLVQPGGSLRLSCAASGFTFSSYAMSWVRQAPGKGLEWVSAIIGSGASTYYADSVKGRFTISRDNSKNTLYLQMNSLRAEDTAVYYCAKGWFGGFNYWGQGTLVTVSS
VL: EIVLTQSPGTLSLSPGERATLSCRASQSVTSSYLAWYQQKPGQAPRLLINVGSRRATGIPDRFSGSGSGTDFTLTISRLEPEDFAVYYCQQGIMLPPTFGQGTKVEIK

Key:
[1] = target: human CD40 expressed on cells (human) (UniProt P25942); experiment: flow cytometry, primary human B cells
[2] = target: human CD40 expressed on cells (human) (UniProt P25942); experiment: flow cytometry, Raji cells
[3] = target: human CD40 extracellular domain with C-terminal His-AviTag (human) (UniProt P25942); experiment: SPR, antibody captured, CD40 ECD analyte
[4] = target: biotinylated recombinant human FAP (human) (UniProt Q12884); experiment: SPR (Biacore), biotinylated huFAP on CAPture chip, Fab analyte
[5] = target: biotinylated recombinant human FAP (human) (UniProt Q12884); experiment: SPR (Biacore)

| Binder | EC50 [1] | EC50 [2] | Kd [3] | koff [3] | kon [3] | Kd [4] | koff [4] | kon [4] | Kd [5] | T ½ [5] | koff [5] | kon [5] |
| --- | --- | --- | --- | --- | --- | --- | --- | --- | --- | --- | --- | --- |
| B1 | 0.333 nM | 0.09 µg/mL | 4.6 nM | 0.00781 s⁻¹ | 1.69e+06 M⁻¹ s⁻¹ |  |  |  |  |  |  |  |
| B2 |  |  |  |  |  | 0.43 nM | 0.00078 s⁻¹ | 1.82e+06 M⁻¹ s⁻¹ | 0.279 nM | 55 min | 0.000208 s⁻¹ | 747000 M⁻¹ s⁻¹ |
